Assay results as given in article PMC5504686 (Molecular genetics and metabolism, 2017).

B1: mature form of the G172D mutant of Flavobacterium glycosylasparaginase (one alpha and one beta chain) (complex)
chain 1: TTNKPIVLSTWNFGLHANVEAWKVLSKGGKALDAVEKGVRLVEDDPTERSVGYGGRPDRDGRVTLDACIMDENYNIGSVACMEHIKNPISVARAVMEKTPHVMLVGDGALEFALSQGFKKENLLTAESEKEWKEWLKTSQYKPIVNIENHD
chain 2: TIGMIALDAQGNLSGACTTSDMAYKMHGRVGDSPIIGAGLFVDNEIGAATATGHGEEVIRTVGTHLVVELMNQGRTPQQACKEAVERIVKIVNRRGKNLKDIQVGFIALNKKGEYGAYCIQDGFNFAVHDQKGNRLETPGFALK
B2: beta subunit of mature G172D Flavobacterium glycosylasparaginase (domain or fragment, UniProt Q47898 197-340, looked up)
chain: B1 chain 2

Tests used:
[1] = molecular target: the molecule itself; test: crystal structure
[2] = molecular target: T1, alpha subunit of mature G172D Flavobacterium glycosylasparaginase (Flavobacterium, UniProt Q47898 46-196); test: crystal structure
T1 sequence (looked up): B1 chain 1

Row | Binder | binding result [1] | binding result [2]
1 | B1 | binds | –
2 | B2 | – | binds
